Patent publication US20030008857A1, “Photodynamic therapy (PDT) in combination with factors that bind cell surface apoptosis-inducing receptors” (priority 1999, published 2003)
Entries after “also recorded” stand apart in the source; their conditions may differ.

Legend:
Format in all cases: cell-based, human
IETDase (caspase 8) = assay: Protease assay of cell extracts with Ac-IETD-AMC; settings: FasL 7.5 ng/ml, 3 hours, Jurkat whole cell extracts
Description: (§1) The human Jurkat T cell line containing a neomycin resistance gene was obtained from Dr. Charles Rudin (University of Chicago). Cells were maintained in RPMI 1640 medium containing 10% heat-inactivated fetal calf serum (FCS) with penicillin (100 U/mL), streptomycin (100 μg/mL), 20 mM HEPES, 2 mM L-glutamine and G418 (1 μg/ml) purchased from Gibco BRL (Burlington, Ontario) in a CO2 incubator at 37° C. To elicit apoptosis with PDT, Jurkat cells were incubated with different amounts of liposomally formulated benzoporphyrin derivative monoacid ring A (BPD-MA, verteporfin, QLT PhotoTherapeutics, Inc., Vancouver, Canada) for one hour at 37° C. under light-protected conditions. The culture medium used for experiments was identical to that used for the passage of the cells except that FCS was used at a concentration of 5%. Experiments were conducted either in 6-well culture plates at 5×10^6 cells in a volume of 4 ml per well or in 96-well microtiter plates at 1×10^5 cells per well at 0.2 ml per well. […]
(§2) These sequences are denoted by letter codes for each amino acid. […] The reaction mixture was incubated at 37° C. for 1 (DEVD.AMC) or 24 (VEID.AMC and IETH.AMC) h and fluorescence was measured using an excitation at 380 nm and an emission wavelength of 460 nm with a CytoFluor™ 2350 fluorescent measuring system (Perseptive Biosystems, Burlington, Ont).

[1] = test system: caspase-3, -6, -8 and -9 and PARP; assay: Western immunoblot of caspase processing and PARP cleavage in Jurkat cells; settings: 3 hours
Description: (§3) The human Jurkat T cell line containing a neomycin resistance gene was obtained from Dr. Charles Rudin (University of Chicago). Cells were maintained in RPMI 1640 medium containing 10% heat-inactivated fetal calf serum (FCS) with penicillin (100 U/mL), streptomycin (100 μg/mL), 20 mM HEPES, 2 mM L-glutamine and G418 (1 μg/ml) purchased from Gibco BRL (Burlington, Ontario) in a CO2 incubator at 37° C. To elicit apoptosis with PDT, Jurkat cells were incubated with different amounts of liposomally formulated benzoporphyrin derivative monoacid ring A (BPD-MA, verteporfin, QLT PhotoTherapeutics, Inc., Vancouver, Canada) for one hour at 37° C. under light-protected conditions. The culture medium used for experiments was identical to that used for the passage of the cells except that FCS was used at a concentration of 5%. Experiments were conducted either in 6-well culture plates at 5×10^6 cells in a volume of 4 ml per well or in 96-well microtiter plates at 1×10^5 cells per well at 0.2 ml per well. Cells were irradiated with light of a wavelength of 690 nm delivered at 65-73 mW/sec from light emitting diodes (LED) to achieve a total light dose of 5 J/cm^2. Cells were returned to the incubator until required for analysis.
(§4) FasL and TRAIL as used were recombinant preparations. […]

caspase-3, -6 and -8 = assay: Caspase cleavage activity of cell extracts, statements covering DEVD, VEID and IETD peptides together
Description: as §3
(§5) FasL and TRAIL as used were recombinant preparations. FasL was obtained from Upstate Biotechnology (Lake Placid NY) and corresponded to amino acids 103-281 of the soluble domain of human FasL. TRAIL was obtained from BIOMOL Research Laboratories (Plymouth Meeting, Pa.) and corresponded to residues 114-281 of the soluble domain of human TRAIL. FasL and TRAIL were usually added immediately following the treatment of cells with PDT, although in one series of experiments these factors were added at 1, 2 or 3 hours post-irradiation.
Whole cell lysates were prepared by washing 1×10^7 cells per sample twice with ice-cold PBS. Cells were disrupted with 1 mL of lysis buffer [1% Nonidet P-40 detergent (NP-40), 20 mM Tris-HCl, pH 8.0, 137 mM NaCl, 10% glycerol, 1 mM phenylmethylsulfonyl fluoride (PMSF) aprotinln (0.15 U/mL) and 1 mM sodium orthovanadate] for 20 minutes on ice. Lysates were centrifuged for 10 minutes at 15,800×g at 4° C.
These sequences are denoted by letter codes for each amino acid. To evaluate relative DEVDase (caspases 3 and 7), VEIDase (caspase 6) and IETDase (caspase 8) cleavage activity, Jurkat cell lysates were incubated with caspase-specific fluorescent substrates as described by Granville et al. (“Photodynamic therapy induces caspase-3 activation in HL-60 cells”, Cell Death Differ., 4, 623-629 (1997)). Briefly, lysates were incubated with reaction buffer (20 mM Tris pH 7.5, 137 mM NaCl, 1% NP-40, 10% glycerol) containing 100 μM of the caspase substrates Ac-DEVD-AMC (Calbiochem, Cambridge, Mass.), Ac-VEID-AMC (Calbiochem, Cambridge, Mass.), Ac-lETD-AMC (BIOMOL, Plymouth Meeting Pa.), and Ac-LEHD-AMC (Calbiochem, Cambridge, Mass.). The letter codes for the amino acid residues present within the inhibitor peptides are as following: D=aspartic acid; E=glutamic acid; H=histidine; I=isoleucine; T=threonine; V=valine. The reaction mixture was incubated at 37° C. for 1 (DEVD.AMC) or 24 (VEID.AMC and IETH.AMC) h and fluorescence was measured using an excitation at 380 nm and an emission wavelength of 460 nm with a CytoFluor™ 2350 fluorescent measuring system (Perseptive Biosystems, Burlington, Ont).

[2] = test system: DEVDase (caspases 3 and 7); assay: Protease assay of cell extracts with Ac-DEVD-AMC; settings: FasL 7.5 ng/ml, 3 hours, Jurkat whole cell extracts
Description: as §1, §2

cytochrome c = assay: Cytochrome c in cytosolic extracts of Jurkat cells (immunoblot); settings: 3 hours
Description: as §3, §4

Jurkat T cells = assay: DNA fragmentation (sub-diploid DNA) by PI staining and flow cytometry
Description: as §3, §5
The proportion of cells containing sub-diploid levels of DNA 24 hours following treatment was determined using a propidium iodide (“PI”) fluorescence analysis procedure as described by Telford et al. (“Rapid Quantitation of Apoptosis in Pure and Heterogeneous Cell Populations Using Flow Cytometry” J. Immunol Methods 172:1-6 (1994)) or by Darzynkieicz et al. (“Features of Apoptotic Cells Measured by Flow Cytometry”, Cytometry, 13:795-808 (1992)).
Twenty four hours following PDT, 5×10^5 cells were washed twice with ice-cold PBS and then permeablized and fixed in 80% ethanol at 4° C. for one hour. The cells were again washed in ice-cold PBS and stained with PI (50 μg/mL) in PBS with simultaneous deoxyribose nuclease-free ribonuclease A (5 U/mL) treatment. These samples were analyzed by flow cytometry. The percentage of apoptotic cells was calculated using single color analysis for PI fluorescence with a Coulter XL flow cytometer (Coulter Electronics, Inc., Hialeah, Fla.). […] The degree of separation between the apoptotic population and the G0/G1 peak is readily apparent and the percentage of apoptotic cells is determined from the subsequent histogram.

VEIDase (caspase 6) = assay: Protease assay of cell extracts with Ac-VEID-AMC; settings: FasL 7.5 ng/ml, 3 hours, Jurkat whole cell extracts
Description: as §1, §2

[3] = FasL 7.5 ng/ml or TRAIL 20 ng/ml

B1: FasL: recombinant, amino acids 103-281 of the soluble domain of human FasL (Upstate Biotechnology) (protein, UniProt P48023 103-281, looked up, fragment)
chain: QLFHLQKELAELRESTSQMHTASSLEKQIGHPSPPPEKKELRKVAHLTGKSNSRSMPLEWEDTYGIVLLSGVKYKKGGLVINETGLYFVYSKVYFRGQSCNNLPLSHKVYMRNSKYPQDLVMMEGKMMSYCTTGQMWARSSYLGAVFNLTSADHLYVNVSELSLVNFEESQTFFGLYKL
- increase in IETDase-like activity versus control cells (IETDase (caspase 8)): one-and-half fold
- caspase processing and PARP degradation compared with PDT or the factor alone ([1]; FasL 7.5 ng/ml or TRAIL 20 ng/ml combined with verteporfin PDT): more extensive caspase processing and PARP degradation; also recorded: a higher degree of processing
- processing of caspases and PARP by the factor alone [1, 3]: little or no processing; also recorded: little detectable processing
- caspase activity compared with the treatments given independently (caspase-3, -6 and -8; FIG. 7: factor combined with PDT (verteporfin 5 ng/ml, 5 J/cm^2), 3 hours): higher caspase activity
- protease activity on DEVD, VEID and IETD peptides, single treatment (caspase-3, -6 and -8; FIG. 7: verteporfin 5 ng/ml with light, FasL 7.5 ng/ml or TRAIL 20 ng/ml alone, 3 hours): modestly increased
- nature of the combined effect on caspase cleavage activity (caspase-3, -6 and -8; FasL 7.5 ng/ml plus PDT at verteporfin 5 ng/ml): greater than additive effect
- caspase cleavage activity levels relative to PDT or FasL applied independently (caspase-3, -6 and -8; FasL 7.5 ng/ml plus PDT at verteporfin 5 ng/ml, 3 hours): 2-5 fold
- protease activity compared with FasL or TRAIL alone (caspase-3, -6 and -8; factor plus verteporfin in the absence of light irradiation): no different
- increase in DEVDase-like cleavage activity versus control cells [2]: approximately two-fold
- cytochrome c in cytosolic extracts, factor alone (cytochrome c; [3]): background levels of cytochrome c
- cytochrome c in cytosolic extracts, factor with PDT (cytochrome c; PDT in combination with TRAIL 20 ng/ml or FasL 7.5 ng/ml): readily detectable amounts of cytochrome c
- increase in proportion of cells with sub-diploid DNA versus light-treated control cells (Jurkat T cells; FasL 7.5 ng/ml added after PDT with verteporfin 2 ng/ml, 5 J/cm^2, 24 hours): twelve-fold
- increase in the number of cells displaying DNA fragmentation (Jurkat T cells; FasL 7.5 ng/ml by itself, 24 hours (FIG. 2)): seven-fold
- cells with induced DNA fragmentation (Jurkat T cells; FasL 200 ng/ml, within 24 hours): approximately 60%
- proportion of cells with sub-diploid DNA compared with PDT alone (Jurkat T cells; TRAIL 20 ng/ml or FasL 7.5 ng/ml added after PDT with verteporfin 0.5 and 1 ng/ml): a greater proportion of cells contained a sub-diploid level of DNA
- DNA fragmentation induced by the factor without PDT across addition times (Jurkat T cells; added at 5 minutes, 1, 2 or 3 hours, FasL 7.5 ng/ml, TRAIL 20 ng/ml, individually or in combination): a comparable level of DNA fragmentation
- change of the combined effect with PDT on DNA fragmentation (Jurkat T cells; factor added at 3 hours post-PDT (verteporfin 2 ng/ml)): a modest decline
- capacity to accentuate PDT-mediated apoptosis (DNA fragmentation) (Jurkat T cells; factor added up to 3 hours after PDT (verteporfin 2 ng/ml), FasL 7.5 ng/ml, TRAIL 20 ng/ml): still demonstrable
- increase in VEIDase-like cleavage activity versus control cells (VEIDase (caspase 6)): approximately two-fold
